The labels stand for the following.
T1: His-FLP (FOUR LIPS, MYB124) (UniProt Q94FL6 1-436)
T1 sequence: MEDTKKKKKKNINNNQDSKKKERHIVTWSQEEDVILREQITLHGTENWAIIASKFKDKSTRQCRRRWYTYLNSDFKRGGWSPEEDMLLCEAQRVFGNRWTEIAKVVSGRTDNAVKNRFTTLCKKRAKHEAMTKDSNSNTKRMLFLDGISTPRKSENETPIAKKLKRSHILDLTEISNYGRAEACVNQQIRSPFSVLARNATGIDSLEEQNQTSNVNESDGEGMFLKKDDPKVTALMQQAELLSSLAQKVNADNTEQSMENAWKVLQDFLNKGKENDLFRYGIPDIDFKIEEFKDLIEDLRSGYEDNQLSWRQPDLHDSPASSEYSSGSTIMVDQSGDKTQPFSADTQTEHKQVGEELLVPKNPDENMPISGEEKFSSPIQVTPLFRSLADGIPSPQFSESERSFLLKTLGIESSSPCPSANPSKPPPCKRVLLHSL

T2: His-MYB88 (UniProt F4IRB4 1-484)
T2 sequence: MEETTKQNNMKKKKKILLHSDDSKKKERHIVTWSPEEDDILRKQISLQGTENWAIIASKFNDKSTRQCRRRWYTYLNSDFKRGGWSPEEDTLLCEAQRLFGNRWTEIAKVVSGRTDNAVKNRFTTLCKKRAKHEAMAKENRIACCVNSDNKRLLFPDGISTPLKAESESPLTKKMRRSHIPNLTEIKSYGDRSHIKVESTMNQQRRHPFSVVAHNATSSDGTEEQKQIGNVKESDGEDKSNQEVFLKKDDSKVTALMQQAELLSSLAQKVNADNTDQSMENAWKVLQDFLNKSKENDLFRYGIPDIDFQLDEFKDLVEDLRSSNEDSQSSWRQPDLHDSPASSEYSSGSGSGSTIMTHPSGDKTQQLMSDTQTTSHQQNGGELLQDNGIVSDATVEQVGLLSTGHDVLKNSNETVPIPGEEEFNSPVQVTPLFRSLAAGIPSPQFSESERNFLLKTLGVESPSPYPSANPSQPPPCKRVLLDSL

B1: Probe-1386 (neighbour element -1392 replaced with A) (dsDNA)
DNA 1: AATGTGTAATTGTCAAGAGGGATAAAAAAACGCGGATGAATCGAAGAAGCAATTGCTTT
DNA 2: AAAGCAATTGCTTCTTCGATTCATCCGCGTTTTTTTATCCCTCTTGACAATTACACATT
B2: Probe-1392 (neighbour element -1386 replaced with A) (dsDNA)
DNA 1: AATGTGTAATTGTCAAGAGGGATAAACCGAAAAAAATGAATCGAAGAAGCAATTGCTTT
DNA 2: AAAGCAATTGCTTCTTCGATTCATTTTTTTCGGTTTATCCCTCTTGACAATTACACATT
B3: Probe-902 (dsDNA)
DNA 1: TATTTAACTATTGCTTTTTTGATTATTAGCCGGGGTACCAAGATATTAGTTTTTAATTT
DNA 2: AAATTAAAAACTAATATCTTGGTACCCCGGCTAATAATCAAAAAAGCAATAGTTAAATA
B4: Probe-1080 (neighbour element -1086 replaced with A) (dsDNA)
DNA 1: CTTCTAGGAAAAAACAATTCTTGAAAAAATCGCGGAAAGATCTTGATAACATTGTGACT
DNA 2: AGTCACAATGTTATCAAGATCTTTCCGCGATTTTTTCAAGAATTGTTTTTTCCTAGAAG
B5: Probe-863 (dsDNA)
DNA 1: AAGATATTAGTTTTTAATTTAGTAATATACCCATATGTTTAATATTGATATCGATATTG
DNA 2: CAATATCGATATCAATATTAAACATATGGGTATATTACTAAATTAAAAACTAATATCTT
B6: Probe-1086 (neighbour element -1080 replaced with A) (dsDNA)
DNA 1: CTTCTAGGAAAAAACAATTCTTGATACGGTAAAAAAAAGATCTTGATAACATTGTGACT
DNA 2: AGTCACAATGTTATCAAGATCTTTTTTTTACCGTATCAAGAATTGTTTTTTCCTAGAAG
B7: Probe-473 (dsDNA)
DNA 1: TTATGTGTATGTTGTTATCTACAATATGTCCGTTTCAATCAGTCGAACAAAAAATACTA
DNA 2: TAGTATTTTTTGTTCGACTGATTGAAACGGACATATTGTAGATAACAACATACACATAA
B8: Probe-1007 (dsDNA)
DNA 1: CATAAGGTATTCTTTTACACTAATACTTTCCCGACAACAACAACGAAAAACTCCAACCT
DNA 2: AGGTTGGAGTTTTTCGTTGTTGTTGTCGGGAAAGTATTAGTGTAAAAGAATACCTTATG

The target in one data set is T1, His-FLP (FOUR LIPS, MYB124). As to the kind of experiment: EMSA; 1x binding buffer (LightShift kit), 2.5% glycerol, 50 mM KCl, 5 mM MgCl2, 0.05% NP-40, 10 mM EDTA, room temperature, 20 min; pH not stated. For orientation: Mobility shift assays separate free from complexed probe on a gel.
As to B1, the binding result is given as “binds”.
Consider B2, for which the binding result is “binds”.
In the case of B3, the binding result is “binds”.
Turning to B4, the binding result is reported as “binds”.
As to B5, the binding result is “no binding”.
Same read-out and setting: for B6 the value was “binds”; for B7, “no binding”; for B8, “no binding”.

The target in a further data set is T2, His-MYB88. The data set is described as above.
As to B1, the binding result is on record as “binds”.
On the same count and under the same terms, for B2 the value was “binds”; for B3, “binds”.

The record behind these values is PMC4673497.
